Test results taken from the RNAGym collection of RNA variant scans (doi:10.1021/acssynbio.7b00057).

B1: Pistol ribozyme (parent)
chain: GGGUCGUUGUUCCAUAAUCGCGUGGAUAUGGCACGCAAGUUUCUACCGGGCACCGUAAAUGUCCGACUGGAGCCGUUCGGGCGGCUAUAAACAGACCUCAGGCCCGAAGCGUGGCGGCACCUGCCGCCGGUGGUAAAAAAGAUCGGAAGAGCACACGUCU

Variants of: B1
Assay: aptazyme ON/OFF ratio, guanine; higher = stronger switching; co-transcriptional cleavage with and without guanine

Going from GGGUCGCUUCAACAUAAUCGCGUGGAUAUGGCACGCAAGUUUCUACCGGGCACCGUAAAUGUCCGACUGGAGCCGUUCGGGCGGCUAUAAACAGACCUCAGGCCCGAAGCGUGGCGGCACCUGCCGCCGGUGGUAAAAAAGAUCGGAAGAGCACACGUCU [U7C G9U U10C U11A C12A] to GGGUCGCUUCAUCAUAAUCGCGUGGAUAUGGCACGCAAGUUUCUACCGGGCACCGUAAAUGUCCGACUGGAGCCGUUCGGGCGGCUAUAAACAGACCUCAGGCCCGAAGCGUGGCGGCACCUGCCGCCGGUGGUAAAAAAGAUCGGAAGAGCACACGUCU [U7C G9U U10C U11A C12U], the “aptazyme ON/OFF ratio” value falls from 1.25 to 1.19.

Going from GGGUCGCUUCAGCAUAAUCGCGUGGAUAUGGCACGCAAGUUUCUACCGGGCACCGUAAAUGUCCGACUGGAGCCGUUCGGGCGGCUAUAAACAGACCUCAGGCCCGAAGCGUGGCGGCACCUGCCGCCGGUGGUAAAAAAGAUCGGAAGAGCACACGUCU [U7C G9U U10C U11A C12G] to GGGUCGCUUCCACAUAAUCGCGUGGAUAUGGCACGCAAGUUUCUACCGGGCACCGUAAAUGUCCGACUGGAGCCGUUCGGGCGGCUAUAAACAGACCUCAGGCCCGAAGCGUGGCGGCACCUGCCGCCGGUGGUAAAAAAGAUCGGAAGAGCACACGUCU [U7C G9U U10C U11C C12A], the “aptazyme ON/OFF ratio” value rises from 1.05 to 1.06.

First: GGGUCGCUUAGCGAUAAUCGCGUGGAUAUGGCACGCAAGUUUCUACCGGGCACCGUAAAUGUCCGACUGGAGCCGUUCGGGCGGCUAUAAACAGACCUCAGGCCCGAAGCGUGGCGGCACCUGCCGCCGGUGGUAAAAAAGAUCGGAAGAGCACACGUCU [U7C G9U U10A U11G C13G]
Second: GGGUCGCUUAGCUAUAAUCGCGUGGAUAUGGCACGCAAGUUUCUACCGGGCACCGUAAAUGUCCGACUGGAGCCGUUCGGGCGGCUAUAAACAGACCUCAGGCCCGAAGCGUGGCGGCACCUGCCGCCGGUGGUAAAAAAGAUCGGAAGAGCACACGUCU [U7C G9U U10A U11G C13U]
The “aptazyme ON/OFF ratio” value of the first is lower: 1.02 for the first, 1.21 for the second.

Going from GGGUCGCUUCUCAAUAAUCGCGUGGAUAUGGCACGCAAGUUUCUACCGGGCACCGUAAAUGUCCGACUGGAGCCGUUCGGGCGGCUAUAAACAGACCUCAGGCCCGAAGCGUGGCGGCACCUGCCGCCGGUGGUAAAAAAGAUCGGAAGAGCACACGUCU [U7C G9U U10C C13A] to GGGUCGCUUCUCUAUAAUCGCGUGGAUAUGGCACGCAAGUUUCUACCGGGCACCGUAAAUGUCCGACUGGAGCCGUUCGGGCGGCUAUAAACAGACCUCAGGCCCGAAGCGUGGCGGCACCUGCCGCCGGUGGUAAAAAAGAUCGGAAGAGCACACGUCU [U7C G9U U10C C13U], the “aptazyme ON/OFF ratio” value rises from 1.04 to 1.5.

First: GGGUCGCUUCUCGAUAAUCGCGUGGAUAUGGCACGCAAGUUUCUACCGGGCACCGUAAAUGUCCGACUGGAGCCGUUCGGGCGGCUAUAAACAGACCUCAGGCCCGAAGCGUGGCGGCACCUGCCGCCGGUGGUAAAAAAGAUCGGAAGAGCACACGUCU [U7C G9U U10C C13G]
Second: GGGUCGCUUCAAGAUAAUCGCGUGGAUAUGGCACGCAAGUUUCUACCGGGCACCGUAAAUGUCCGACUGGAGCCGUUCGGGCGGCUAUAAACAGACCUCAGGCCCGAAGCGUGGCGGCACCUGCCGCCGGUGGUAAAAAAGAUCGGAAGAGCACACGUCU [U7C G9U U10C U11A C12A C13G]
The “aptazyme ON/OFF ratio” value of the first is higher: 1.06 for the first, 1.04 for the second.

GGGUCGCUUCAAUAUAAUCGCGUGGAUAUGGCACGCAAGUUUCUACCGGGCACCGUAAAUGUCCGACUGGAGCCGUUCGGGCGGCUAUAAACAGACCUCAGGCCCGAAGCGUGGCGGCACCUGCCGCCGGUGGUAAAAAAGAUCGGAAGAGCACACGUCU [U7C G9U U10C U11A C12A C13U] and GGGUCGCUUCAAAAUAAUCGCGUGGAUAUGGCACGCAAGUUUCUACCGGGCACCGUAAAUGUCCGACUGGAGCCGUUCGGGCGGCUAUAAACAGACCUCAGGCCCGAAGCGUGGCGGCACCUGCCGCCGGUGGUAAAAAAGAUCGGAAGAGCACACGUCU [U7C G9U U10C U11A C12A C13A] are the same in “aptazyme ON/OFF ratio” value: 1.15 for the first, 1.15 for the second.

GGGUCGCUUCUAGAUAAUCGCGUGGAUAUGGCACGCAAGUUUCUACCGGGCACCGUAAAUGUCCGACUGGAGCCGUUCGGGCGGCUAUAAACAGACCUCAGGCCCGAAGCGUGGCGGCACCUGCCGCCGGUGGUAAAAAAGAUCGGAAGAGCACACGUCU [U7C G9U U10C C12A C13G] and GGGUCGCUUCUAUAUAAUCGCGUGGAUAUGGCACGCAAGUUUCUACCGGGCACCGUAAAUGUCCGACUGGAGCCGUUCGGGCGGCUAUAAACAGACCUCAGGCCCGAAGCGUGGCGGCACCUGCCGCCGGUGGUAAAAAAGAUCGGAAGAGCACACGUCU [U7C G9U U10C C12A C13U] are the same in “aptazyme ON/OFF ratio” value: 1.09 for the first, 1.09 for the second.

Going from GGGUCGCUUCUAAAUAAUCGCGUGGAUAUGGCACGCAAGUUUCUACCGGGCACCGUAAAUGUCCGACUGGAGCCGUUCGGGCGGCUAUAAACAGACCUCAGGCCCGAAGCGUGGCGGCACCUGCCGCCGGUGGUAAAAAAGAUCGGAAGAGCACACGUCU [U7C G9U U10C C12A C13A] to GGGUCGCUUCUCCAUAAUCGCGUGGAUAUGGCACGCAAGUUUCUACCGGGCACCGUAAAUGUCCGACUGGAGCCGUUCGGGCGGCUAUAAACAGACCUCAGGCCCGAAGCGUGGCGGCACCUGCCGCCGGUGGUAAAAAAGAUCGGAAGAGCACACGUCU [U7C G9U U10C], the “aptazyme ON/OFF ratio” value rises from 1.09 to 2.79.

First: GGGUCGCUUCACUAUAAUCGCGUGGAUAUGGCACGCAAGUUUCUACCGGGCACCGUAAAUGUCCGACUGGAGCCGUUCGGGCGGCUAUAAACAGACCUCAGGCCCGAAGCGUGGCGGCACCUGCCGCCGGUGGUAAAAAAGAUCGGAAGAGCACACGUCU [U7C G9U U10C U11A C13U]
Second: GGGUCGCUUCACGAUAAUCGCGUGGAUAUGGCACGCAAGUUUCUACCGGGCACCGUAAAUGUCCGACUGGAGCCGUUCGGGCGGCUAUAAACAGACCUCAGGCCCGAAGCGUGGCGGCACCUGCCGCCGGUGGUAAAAAAGAUCGGAAGAGCACACGUCU [U7C G9U U10C U11A C13G]
The “aptazyme ON/OFF ratio” value of the first is higher: 1.16 for the first, 1.04 for the second.
